From patent US20190062426A1

Target: human CD30 (tumor necrosis factor receptor superfamily, member 8 (TNFRSF8)) (human) (UniProt P28908)
Assay: cell-based or functional assay

UniProt P28908, sequence (P28908 19-595): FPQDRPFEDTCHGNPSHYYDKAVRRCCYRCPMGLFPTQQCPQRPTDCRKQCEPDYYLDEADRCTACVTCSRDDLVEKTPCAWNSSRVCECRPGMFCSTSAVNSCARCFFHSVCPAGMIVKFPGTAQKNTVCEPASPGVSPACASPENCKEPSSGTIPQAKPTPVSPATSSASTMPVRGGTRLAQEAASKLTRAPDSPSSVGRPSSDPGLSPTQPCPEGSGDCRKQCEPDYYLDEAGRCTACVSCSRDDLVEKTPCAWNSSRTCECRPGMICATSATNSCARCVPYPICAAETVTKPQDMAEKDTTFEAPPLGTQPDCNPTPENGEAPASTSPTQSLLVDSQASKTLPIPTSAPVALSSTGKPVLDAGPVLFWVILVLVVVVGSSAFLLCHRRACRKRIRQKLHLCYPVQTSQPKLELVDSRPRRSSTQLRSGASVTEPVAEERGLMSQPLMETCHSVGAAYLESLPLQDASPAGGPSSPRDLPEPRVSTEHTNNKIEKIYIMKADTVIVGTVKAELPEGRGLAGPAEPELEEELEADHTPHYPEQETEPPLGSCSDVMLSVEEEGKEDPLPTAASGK

Q: What does the source list for 5F11-CD8BBZ CAR?
A: CD107a degranulation, % CD8+CD107a+ cells after 4 h with CD30-bv173 cells (% of live CD3+ lymphocytes): 25.9; CD107a degranulation, % CD8-CD107a+ cells after 4 h with CD30-bv173 cells (% of live CD3+ lymphocytes): 12.1; antigen-specific IFNγ production on culture with CD30+ HH lymphoma cells: 47700

Q: How did the CD107a degranulation, % CD8+CD107a+ cells after 4 h with CD30-bv173 cells (% of live CD3+ lymphocytes) turn out when 5F11-CD828Z CAR was run?
A: Its CD107a degranulation, % CD8+CD107a+ cells after 4 h with CD30-bv173 cells (% of live CD3+ lymphocytes) is 30.

Q: What about the CD107a degranulation, % CD8-CD107a+ cells after 4 h with CD30-bv173 cells (% of live CD3+ lymphocytes) of the same molecule?
A: Its CD107a degranulation, % CD8-CD107a+ cells after 4 h with CD30-bv173 cells (% of live CD3+ lymphocytes) is 11.6.

Q: What about the IFNγ released (ELISA) after overnight culture with CD30+ HDLM-2 cells of the same molecule?
A: Its IFNγ released (ELISA) after overnight culture with CD30+ HDLM-2 cells is 3010 pg/mL.

Q: And the IFNγ released (ELISA) after overnight culture with CD30+ SUDHL-1 cells?
A: Its IFNγ released (ELISA) after overnight culture with CD30+ SUDHL-1 cells is 2300 pg/mL.

Q: And the antigen-specific IFNγ production on culture with CD30+ HH lymphoma cells?
A: The antigen-specific IFNγ production on culture with CD30+ HH lymphoma cells was 34300.

Q: Which CD107a degranulation, % CD8+CD107a+ cells after 4 h with CD30+ SUDHL-1 cells (% of live CD3+ lymphocytes) does the source give for AC10-28Z CAR here?
A: The CD107a degranulation, % CD8+CD107a+ cells after 4 h with CD30+ SUDHL-1 cells (% of live CD3+ lymphocytes) was 6.18.

Q: And the CD107a degranulation, % CD8-CD107a+ cells after 4 h with CD30+ SUDHL-1 cells (% of live CD3+ lymphocytes)?
A: Its CD107a degranulation, % CD8-CD107a+ cells after 4 h with CD30+ SUDHL-1 cells (% of live CD3+ lymphocytes) is 1.34.

Q: What about the IFNγ released (ELISA) on co-culture with CD30+ HH cells of the same molecule?
A: The IFNγ released (ELISA) on co-culture with CD30+ HH cells was 8140 pg/mL.

Q: And the IFNγ released (ELISA) on co-culture with CD30+ SUDHL-1 cells?
A: Its IFNγ released (ELISA) on co-culture with CD30+ SUDHL-1 cells is 4850 pg/mL.

Q: What about the IFNγ released (ELISA) on co-culture with CD30-bv173 cells of the same molecule?
A: Its IFNγ released (ELISA) on co-culture with CD30-bv173 cells is 538 pg/mL.

Q: With XmAb2513-28Z CAR as the molecule, how does the CD107a degranulation, % CD8+CD107a+ cells after 4 h with CD30+ SUDHL-1 cells (% of live CD3+ lymphocytes) read?
A: Its CD107a degranulation, % CD8+CD107a+ cells after 4 h with CD30+ SUDHL-1 cells (% of live CD3+ lymphocytes) is 7.72.

Q: And the CD107a degranulation, % CD8-CD107a+ cells after 4 h with CD30+ SUDHL-1 cells (% of live CD3+ lymphocytes)?
A: Its CD107a degranulation, % CD8-CD107a+ cells after 4 h with CD30+ SUDHL-1 cells (% of live CD3+ lymphocytes) is 1.86.

Q: And the IFNγ released (ELISA) on co-culture with CD30+ HH cells?
A: Its IFNγ released (ELISA) on co-culture with CD30+ HH cells is 4700 pg/mL.

Q: And the IFNγ released (ELISA) on co-culture with CD30+ SUDHL-1 cells?
A: The IFNγ released (ELISA) on co-culture with CD30+ SUDHL-1 cells was 2440 pg/mL.

Q: What about the IFNγ released (ELISA) on co-culture with CD30-bv173 cells of the same molecule?
A: Its IFNγ released (ELISA) on co-culture with CD30-bv173 cells is 388 pg/mL.

B1: 5F11-28Z CAR (protein)
chain: DIQMTQSPTSLSASVGDRVTITCRASQGISSWLTWYQQKPEKAPKSLIYAASSLQSGVPSRFSGSGSGTDFTLTISSLQPEDFATYYCQQYDSYPITFGQGTRLEIKGSTSGSGKPGSGEGSTKGQVQLQQWGAGLLKPSETLSLTCAVYGGSFSAYYWSWIRQPPGKGLEWIGDINHGGGTNYNPSLKSRVTISVDTSKNQFSLKLNSVTAADTAVYYCASLTAYWGQGSLVTVSSIEVMYPPPYLDNEKSNGTIIHVKGKHLCPSPLFPGPSKPFWVLVVVGGVLACYSLLVTVAFIIFWVRSKRSRLLHSDYMNMTPRRPGPTRKHYQPYAPPRDFAAYRSRVKFSRSADAPAYQQGQNQLYNELNLGRREEYDVLDKRRGRDPEMGGKPRRKNPQEGLYNELQKDKMAEAYSEIGMKGERRRGKGHDGLYQGLSTATKDTYDALHMQALPPR
Q: How did the CD107a degranulation, % CD8+CD107a+ cells after 4 h with CD30+ SUDHL-1 cells (% of live CD3+ lymphocytes) turn out when B1 was run?
A: The CD107a degranulation, % CD8+CD107a+ cells after 4 h with CD30+ SUDHL-1 cells (% of live CD3+ lymphocytes) was 47.4.

Q: What about the CD107a degranulation, % CD8+CD107a+ cells after 4 h with CD30-bv173 cells (% of live CD3+ lymphocytes) of the same molecule?
A: The CD107a degranulation, % CD8+CD107a+ cells after 4 h with CD30-bv173 cells (% of live CD3+ lymphocytes) was 39.5.

Q: And the CD107a degranulation, % CD8-CD107a+ cells after 4 h with CD30+ SUDHL-1 cells (% of live CD3+ lymphocytes)?
A: The CD107a degranulation, % CD8-CD107a+ cells after 4 h with CD30+ SUDHL-1 cells (% of live CD3+ lymphocytes) was 4.32.

Q: What about the CD107a degranulation, % CD8-CD107a+ cells after 4 h with CD30-bv173 cells (% of live CD3+ lymphocytes) of the same molecule?
A: The CD107a degranulation, % CD8-CD107a+ cells after 4 h with CD30-bv173 cells (% of live CD3+ lymphocytes) was 6.82.

Q: And the IFNγ released (ELISA) after overnight culture with CD30+ HDLM-2 cells?
A: The IFNγ released (ELISA) after overnight culture with CD30+ HDLM-2 cells was 3530 pg/mL.

Q: What about the IFNγ released (ELISA) after overnight culture with CD30+ SUDHL-1 cells of the same molecule?
A: Its IFNγ released (ELISA) after overnight culture with CD30+ SUDHL-1 cells is 3490 pg/mL.

Q: And the IFNγ released (ELISA) on co-culture with CD30+ HH cells?
A: Its IFNγ released (ELISA) on co-culture with CD30+ HH cells is 78600 pg/mL.

Q: And the IFNγ released (ELISA) on co-culture with CD30+ SUDHL-1 cells?
A: The IFNγ released (ELISA) on co-culture with CD30+ SUDHL-1 cells was 25500 pg/mL.

Q: And the IFNγ released (ELISA) on co-culture with CD30-bv173 cells?
A: Its IFNγ released (ELISA) on co-culture with CD30-bv173 cells is 3780 pg/mL.

Q: What about the IFNγ released (ELISA) on overnight culture with CD30+ HH cells, 0 µg/mL soluble human CD30 protein added of the same molecule?
A: Its IFNγ released (ELISA) on overnight culture with CD30+ HH cells, 0 µg/mL soluble human CD30 protein added is 23000 pg/mL.

Q: And the IFNγ released (ELISA) on overnight culture with CD30+ HH cells, 0.2 µg/mL soluble human CD30 protein added?
A: The IFNγ released (ELISA) on overnight culture with CD30+ HH cells, 0.2 µg/mL soluble human CD30 protein added was 18400 pg/mL.

Q: And the IFNγ released (ELISA) on overnight culture with CD30+ HH cells, 1 µg/mL soluble human CD30 protein added?
A: The IFNγ released (ELISA) on overnight culture with CD30+ HH cells, 1 µg/mL soluble human CD30 protein added was 19900 pg/mL.

Q: What about the IFNγ released (ELISA) on overnight culture with CD30+ HH cells, 5 µg/mL soluble human CD30 protein added of the same molecule?
A: The IFNγ released (ELISA) on overnight culture with CD30+ HH cells, 5 µg/mL soluble human CD30 protein added was 18700 pg/mL.

Q: What about the antigen-specific IFNγ production on culture with CD30+ HH lymphoma cells of the same molecule?
A: Its antigen-specific IFNγ production on culture with CD30+ HH lymphoma cells is 127000.
